Columns and labels:
mmp14_human MMP14 = mmp14_human MMP14 (UniProt P50281)
gors2_rat Gorasp2 [1] = target: gors2_rat Gorasp2 (UniProt Q9R064)
gors2_rat Gorasp2 [2] = target: gors2_rat Gorasp2 (UniProt Q9R064); remark: listed apart in the source
gors2_rat Gorasp2 [3] = target: gors2_rat Gorasp2 (UniProt Q9R064); remark: listed apart in the source
gors2_rat Gorasp2 [4] = target: gors2_rat Gorasp2 (UniProt Q9R064); remark: listed apart in the source
gors2_rat Gorasp2 [5] = target: gors2_rat Gorasp2 (UniProt Q9R064); remark: listed apart in the source
gors2_rat Gorasp2 [6] = target: gors2_rat Gorasp2 (UniProt Q9R064); remark: listed apart in the source

Golgi reassembly-stacking protein 2 (Rattus norvegicus (Rat)) (from UniProt Q9R064) G2A
effect of a mutation on the interaction (mmp14_human MMP14): disrupting interaction

Matrix metalloproteinase-14 (Homo sapiens) (from UniProt P50281) C574A
effect of a mutation on the interaction (gors2_rat Gorasp2 [1]): decreasing interaction

Matrix metalloproteinase-14 (Homo sapiens) (from UniProt P50281) G566A
effect of a mutation on the interaction (gors2_rat Gorasp2 [2]): decreasing interaction

Matrix metalloproteinase-14 (Homo sapiens) (from UniProt P50281) H565A
effect of a mutation on the interaction (gors2_rat Gorasp2 [2]): decreasing interaction

Matrix metalloproteinase-14 (Homo sapiens) (from UniProt P50281) L571A
effect of a mutation on the interaction (gors2_rat Gorasp2 [3]): disrupting interaction

Matrix metalloproteinase-14 (Homo sapiens) (from UniProt P50281) L572A
effect of a mutation on the interaction (gors2_rat Gorasp2 [3]): disrupting interaction

Matrix metalloproteinase-14 (Homo sapiens) (from UniProt P50281) L578A
effect of a mutation on the interaction (gors2_rat Gorasp2 [4]): decreasing interaction

Matrix metalloproteinase-14 (Homo sapiens) (from UniProt P50281) L579A
effect of a mutation on the interaction (gors2_rat Gorasp2 [4]): decreasing interaction

Matrix metalloproteinase-14 (Homo sapiens) (from UniProt P50281) P568A
effect of a mutation on the interaction (gors2_rat Gorasp2 [5]): decreasing interaction

Matrix metalloproteinase-14 (Homo sapiens) (from UniProt P50281) Q575A
effect of a mutation on the interaction (gors2_rat Gorasp2 [1]): decreasing interaction

Matrix metalloproteinase-14 (Homo sapiens) (from UniProt P50281) R569A
effect of a mutation on the interaction (gors2_rat Gorasp2 [5]): decreasing interaction

Matrix metalloproteinase-14 (Homo sapiens) (from UniProt P50281) R570A
effect of a mutation on the interaction (gors2_rat Gorasp2 [5]): decreasing interaction

Matrix metalloproteinase-14 (Homo sapiens) (from UniProt P50281) R576A
effect of a mutation on the interaction (gors2_rat Gorasp2 [1]): decreasing interaction

Matrix metalloproteinase-14 (Homo sapiens) (from UniProt P50281) S577A
effect of a mutation on the interaction (gors2_rat Gorasp2 [4]): decreasing interaction

Matrix metalloproteinase-14 (Homo sapiens) (from UniProt P50281) T567A
effect of a mutation on the interaction (gors2_rat Gorasp2 [2]): decreasing interaction

Matrix metalloproteinase-14 (Homo sapiens) (from UniProt P50281) Y573A
effect of a mutation on the interaction (gors2_rat Gorasp2 [3]): disrupting interaction

Matrix metalloproteinase-15 (Homo sapiens), P51511 L658A
effect of a mutation on the interaction (gors2_rat Gorasp2 [6]): decreasing interaction

Matrix metalloproteinase-15 (Homo sapiens), P51511 L659A
effect of a mutation on the interaction (gors2_rat Gorasp2 [6]): decreasing interaction

Matrix metalloproteinase-15 (Homo sapiens), P51511 Y660A
effect of a mutation on the interaction (gors2_rat Gorasp2 [6]): decreasing interaction

Reference: IntAct's records for PubMed 20608975
